Assay results taken from publication PMC6538607.

Key:
[1] = target: p43, the major excreted/secreted protein of Trichuris muris (native p43) (Trichuris muris); test: native MS; p43 and IL-13 mixed at a ratio of 1.5:1 in 250 mM ammonium acetate, pH 7, 2 h at room temperature; nano-electrospray, collision-induced dissociation of the mass-selected 18+ ion of the complex
[2] = target: p43, the major excreted/secreted protein of Trichuris muris (native p43) (Trichuris muris); test: MST; serial dilution of IL-13 from 2500 nM to 40 pM with 5 nM NHS-647-labeled p43; 20 mM HEPES, 150 mM NaCl, 0.005% Tween-20, pH 7.4; KD model (1:1 stoichiometry); three reactions

B1: recombinant murine interleukin-13 (ligand)
chain: APGPVPRSVSLPLTLKELIEELSNITQDQTPLCNGSMVWSVDLAAGGFCVALDSLTNISNCNAIYRTQRILHGLCNRKAPTTVSSLPDTKIEVAHFITKLLSYTKQLFRHGPF
- stoichiometry N [1]: 1
- Kd [2]: 420 nM
